Measured values taken from article doi:10.1101/2025.11.05.686883 (bioRxiv, 2025).
Where two headings read alike, the source gives them in different places.

How the values were obtained:
[1] = biological target: T1, HCV-1 sE1E2.Cut1+2.SPYΔN-His6 (Hepatitis C virus genotype 1a, isolate …, UniProt P26664, stabilised); test: negative-stain electron microscopy
HCV-1 E1E2 = HCV-1 E1E2 (Hepatitis C virus genotype 1a, isolate …, UniProt P26664, strain); test: ELISA
[2] = biological target: T1, HCV-1 sE1E2.Cut1+2.SPYΔN-His6; test: BLI
H77 E1E2, wild type [3] = biological target: T2, H77 E1E2, wild type (Hepatitis C virus genotype 1a, isolate …); test: ELISA
H77 E1E2, wild type [4] = biological target: T2, H77 E1E2, wild type; test: ELISA; remark: listed apart in the source
[5] = biological target: T1, HCV-1 sE1E2.Cut1+2.SPYΔN-His6; test: BLI; remark: listed apart in the source

B1: K595 Fab (Fab, V domains shown)
VH: EVQLLESGGGLVQPGGSLRLSCAASGFTFSNYVMTWARQAPGKGLEWVSSISDSGGNADYAHSVRGRFTISRDNSKNTLFLHMNSLRVEDTAVYHCAKALIAPGSLFRDQLLNWFDFWGQGTRVTVSS
VL: DIQMTQSPSTLSASVGDRVTITCRASQSIGNWLAWYQQKPGKAPKLLIYQASTLKSGVPSRFSGSGSGTEFSLTISSLQPDDLATYFCQQYNGSPLTFAGGTKVEIK
binding result [1]: binds

B2: K595 (antibody) (antibody, V domains shown)
VH: EVQLLESGGGLVQPGGSLRLSCAASGFTFSNYVMTWARQAPGKGLEWVSSISDSGGNADYAHSVRGRFTISRDNSKNTLFLHMNSLRVEDTAVYHCAKALIAPGSLFRDQLLNWFDFWGQGTRVTVSS
VL: DIQMTQSPSTLSASVGDRVTITCRASQSIGNWLAWYQQKPGKAPKLLIYQASTLKSGVPSRFSGSGSGTEFSLTISSLQPDDLATYFCQQYNGSPLTFAGGTKVEIK
binding result (HCV-1 E1E2): binds

B3: RM3-26 (IgG) (antibody, V domains shown)
VH: QLQLQESGPGLVKPSETLSLTCIVSGGSISGYSWNWIRQPPGKGLEWIGNIFSGGDDANYNPSLKSRVTLSVDTSKNHFSLRLSSVTAADTAVYYCARHSAGFITGRYFELWGQGALVTVSS
VL: DIQMTQSPSSLSASLGDRVTITCRANQDISSSLAWYQQKPGKAPKPLIYYASNLESGVPSRFRGSGSGTEFTLTISSLQSEDFAVYYCQQYNSDPLTFGGGTKVEIK
binding result [2]: binds

B4: RM3-26 variant, heavy chain CDRH3 R100c to alanine, wild-type light chain (antibody, V domains shown)
VH: QLQLQESGPGLVKPSETLSLTCIVSGGSISGYSWNWIRQPPGKGLEWIGNIFSGGDDANYNPSLKSRVTLSVDTSKNHFSLRLSSVTAADTAVYYCARHSAGFITGAYFELWGQGALVTVSS
VL: DIQMTQSPSSLSASLGDRVTITCRANQDISSSLAWYQQKPGKAPKPLIYYASNLESGVPSRFRGSGSGTEFTLTISSLQSEDFAVYYCQQYNSDPLTFGGGTKVEIK
binding result (H77 E1E2, wild type [3]): binds

B5: RM3-26 variant, heavy chain CDRH3 T100a to alanine, wild-type light chain (antibody, V domains shown)
VH: QLQLQESGPGLVKPSETLSLTCIVSGGSISGYSWNWIRQPPGKGLEWIGNIFSGGDDANYNPSLKSRVTLSVDTSKNHFSLRLSSVTAADTAVYYCARHSAGFIAGRYFELWGQGALVTVSS
VL: DIQMTQSPSSLSASLGDRVTITCRANQDISSSLAWYQQKPGKAPKPLIYYASNLESGVPSRFRGSGSGTEFTLTISSLQSEDFAVYYCQQYNSDPLTFGGGTKVEIK
binding result (H77 E1E2, wild type [3]): no binding (tested: 1 µg/mL (methods))

B6: RM3-26 variant, light chain CDRL2 Y50 to alanine, wild-type heavy chain (antibody, V domains shown)
VH: QLQLQESGPGLVKPSETLSLTCIVSGGSISGYSWNWIRQPPGKGLEWIGNIFSGGDDANYNPSLKSRVTLSVDTSKNHFSLRLSSVTAADTAVYYCARHSAGFITGRYFELWGQGALVTVSS
VL: DIQMTQSPSSLSASLGDRVTITCRANQDISSSLAWYQQKPGKAPKPLIYAASNLESGVPSRFRGSGSGTEFTLTISSLQSEDFAVYYCQQYNSDPLTFGGGTKVEIK
binding result (H77 E1E2, wild type [3]): binds

B7: RM3-26 variant, heavy chain CDRH1 Y32 to alanine, wild-type light chain (antibody, V domains shown)
VH: QLQLQESGPGLVKPSETLSLTCIVSGGSISGASWNWIRQPPGKGLEWIGNIFSGGDDANYNPSLKSRVTLSVDTSKNHFSLRLSSVTAADTAVYYCARHSAGFITGRYFELWGQGALVTVSS
VL: DIQMTQSPSSLSASLGDRVTITCRANQDISSSLAWYQQKPGKAPKPLIYYASNLESGVPSRFRGSGSGTEFTLTISSLQSEDFAVYYCQQYNSDPLTFGGGTKVEIK
binding result (H77 E1E2, wild type [3]): binds

B8: RM3-26 variant, light chain CDRL3 Y91 to alanine, wild-type heavy chain (antibody, V domains shown)
VH: QLQLQESGPGLVKPSETLSLTCIVSGGSISGYSWNWIRQPPGKGLEWIGNIFSGGDDANYNPSLKSRVTLSVDTSKNHFSLRLSSVTAADTAVYYCARHSAGFITGRYFELWGQGALVTVSS
VL: DIQMTQSPSSLSASLGDRVTITCRANQDISSSLAWYQQKPGKAPKPLIYYASNLESGVPSRFRGSGSGTEFTLTISSLQSEDFAVYYCQQANSDPLTFGGGTKVEIK
binding result (H77 E1E2, wild type [3]): binds

B9: RM3-26 variant, heavy chain CDRH3 Y100d to alanine, wild-type light chain (antibody, V domains shown)
VH: QLQLQESGPGLVKPSETLSLTCIVSGGSISGYSWNWIRQPPGKGLEWIGNIFSGGDDANYNPSLKSRVTLSVDTSKNHFSLRLSSVTAADTAVYYCARHSAGFITGRAFELWGQGALVTVSS
VL: DIQMTQSPSSLSASLGDRVTITCRANQDISSSLAWYQQKPGKAPKPLIYYASNLESGVPSRFRGSGSGTEFTLTISSLQSEDFAVYYCQQYNSDPLTFGGGTKVEIK
binding result (H77 E1E2, wild type [3]): no binding (tested: 1 µg/mL (methods))

B10: K400 Fab (Fab, V domains shown)
VH: EVQLVQSGAEVKTPGASVRVSCTASGDTFTNHDIHWVRQAPGQGLEWMGGMNADSGKTAYAQKFQGRVSMTINTPTNTAYMDLSSLRSEDTALYYCARGDGLDFTLFGVAHYSYYNGVGVWGHGTTITVSS
VL: EIVMTQSPLALPVTPGEPASIFCKSSHSLLHYNGYTYLDWYLQKPGQSPQLLIYLGSNRASGVPDRFSGSGSGTEFTLKISRVEAEDVGVYYCMQALQTPITFGQGTRLEIK
binding result [1]: binds

B11: K400 (antibody) (antibody, V domains shown)
VH: EVQLVQSGAEVKTPGASVRVSCTASGDTFTNHDIHWVRQAPGQGLEWMGGMNADSGKTAYAQKFQGRVSMTINTPTNTAYMDLSSLRSEDTALYYCARGDGLDFTLFGVAHYSYYNGVGVWGHGTTITVSS
VL: EIVMTQSPLALPVTPGEPASIFCKSSHSLLHYNGYTYLDWYLQKPGQSPQLLIYLGSNRASGVPDRFSGSGSGTEFTLKISRVEAEDVGVYYCMQALQTPITFGQGTRLEIK
binding result (HCV-1 E1E2): binds | binding result (H77 E1E2, wild type [4]): binds

B12: AR4A Fab (Fab, V domains shown)
VH: VQLLEQSGPEVKKPGDSLRISCKMSGDSLVTTWIGWVRQKPGQGLEWMGIINPGDSSTNIYPGDSATRYGPSFQGQVTISIDKSTSTAYLQWNNVKASDTGIYYCARHVPVPISGTFLWREREMHDFGYFDDWGQGTLVIVSS
VL: ELTLTQSPGTLSLSPGERATLSCRASQSVSNNYLAWYQQKPGQAPRLLIYGASSRATGIPDRFSGSGSGTGFTLIISRLEPEDFAVYYCQQYGSSSITFGQGTRLEIK
binding result [1]: binds

B13: AR4A (IgG) (antibody, V domains shown)
VH: VQLLEQSGPEVKKPGDSLRISCKMSGDSLVTTWIGWVRQKPGQGLEWMGIINPGDSSTNIYPGDSATRYGPSFQGQVTISIDKSTSTAYLQWNNVKASDTGIYYCARHVPVPISGTFLWREREMHDFGYFDDWGQGTLVIVSS
VL: ELTLTQSPGTLSLSPGERATLSCRASQSVSNNYLAWYQQKPGQAPRLLIYGASSRATGIPDRFSGSGSGTGFTLIISRLEPEDFAVYYCQQYGSSSITFGQGTRLEIK
binding result (HCV-1 E1E2): binds | binding result [5]: binds
